# B1: Homeodomain-interacting protein kinase 2 (Mus musculus), Q9QZR5 (parent)
# chain: MAPVYEGMASHVQVFSPHTLQSSAFCSVKKLKVEPSSNWDMTGYGSHSKVYSQSKNIPPSQPASTTVSTSLPIPNPSLPYEQTIIFPGSTGHIVVTSASSTSVTGQVLGGPHNLMRRSTVSLLDTYQKCGLKRKSEEIENTSSVQIIEEHPPMIQNNASGATVATATTSTATSKNSGSNSEGDYQLVQHEVLCSMTNTYEVLEFLGRGTFGQVVKCWKRGTNEIVAIKILKNHPSYARQGQIEVSILARLSTESADDYNFVRAYECFQHKNHTCLVFEMLEQNLYDFLKQNKFSPLPLKYIRPVLQQVATALMKLKSLGLIHADLKPENIMLVDPSRQPYRVKVIDFGSASHVSKAVCSTYLQSRYYRAPEIILGLPFCEAIDMWSLGCVIAELFLGWPLYPGASEYDQIRYISQTQGLPAEYLLSAGTKTTRFFNRDTDSPYPLWRLKTPDDHEAETGIKSKEARKYIFNCLDDMAQVNMTTDLEGSDMLVEKADRREFIDLLKKMLTIDADKRVTPIETLNHPFVTMTHLLDFPHSAHVKSCFQNMEICKRRVNMYDTVNQSKTPFITHVAPSTSTNLTMTFNNQLTTVHNQAPTTSSATLSLANPEVSILNYQSALYQPSAASMAAVAPRSMPLQTGTAQICARPDPFQQALIVCPPGFQGLQASPSKHAGYSVRMENAVPIVTQAPGAQPLQIQPGLLAQQAWPGGAQQILLPPAWQQLTGVATHTSVQHAAVIPETMAGTQQLADWRNTHAHGSHYNPIMQQPALLTGHVTLPAAQPLNVGVAHVMRQQPTSTTSSRKSKQHQSSVRNVSTCEVTSSQAISSPQRSKRVKENTPPRCAMVHSSPACSTSVTCGWGDVASSTTRERQRQTIVIPDTPSPTVSVITISSDTDEEEEQKHAPTSTVSKQRKNVISCVTVHDSPYSDSSSNTSPYSVQQRTGHNGTNTLDTKGGLENHCTGNPRTIIVPPLKTQASEVLVECDSLGPAISASHHSSSFKSKSSSTVTSTSGHSSGSSSGAIAYRQQRPGPHFQQQQPLNLSQAQQHMAADRTGSHRRQQAYITPTMAQAPYTFPHNSPSHGTVHPHLAAAAHLPTQPHLYTYTAPTALGSTGTVAHLVASQGSARHTVQHTAYPASIVHQVPVSMGPRVLPSPTIHPSQYPAQFAHQTYISASPASTVYTGYPLSPAKVNQYPYI
# Variants of: B1
# Conditions: with mef2c_mouse Mef2c
row,Variant,effect of a mutation on the interaction
1,K228A,decreasing interaction strength

# From IntAct's records for PubMed 23565059
